Test results as given in US20100322957A1.

Biological target: NLRC4 (mouse) (UniProt Q3UP24)

Substance | IL-1β secretion (ELISA) by LPS-primed BMM one hour after protein transfection
FliC (purified, histidine-tagged) (from UniProt P06179) (ligand) | 800 pg/mL
PrgJ (purified, histidine-tagged) (from UniProt P41785) (ligand) | 800 pg/mL
